Data taken from publication PMC9295680 (Plant Direct, 2022).
Where two headings read alike, the source gives them in different places. Blank lines part the entries; values can stand above or below the molecule they belong to.

Legend:
Assay in all cases: SEC-MALS
[1] = molecular target: homospermidine synthase (HSS) from Ipomoea alba (Ipomoea alba)
[2] = molecular target: homospermidine synthase (HSS) from Distimake quinquefolius individuum 1 (Distimake quinquefolius)
[3] = molecular target: homospermidine synthase (HSS) from Distimake quinquefolius individuum 2 (Distimake quinquefolius)
SEC-MALS [4] = molecular target: the molecule itself
SEC-MALS [5] = molecular target: the molecule itself; remark: listed apart in the source

Molecule: homospermidine synthase (HSS) from Ipomoea alba (enzyme)
stoichiometry N [1]: 4

B1: homospermidine synthase (HSS) from Camonea umbellata (enzyme, UniProt A0A6M4MJB9 1-377, looked up)
chain: MGEATRDQNSTMDSAHAAVFKKSESLDGACMKIEGYDFNRGIDYPQLLKSLLSTGFQASNLGEAIQIVNEMLDWRLSHEPIMEDCNDKEKDPAYRDSVTTKIFLGFTSNLVSSGVRETIRYLVQHHMVDVVVTTAGGIEEDLIKCLAPTYKGEFSLRGSVLRSKGLNRIGNLLVPNDNYCKFEDWIIPIFDQMYEEQTKQNVLWTPSKVIARLGKEINDESSYLYWAYKNEIPVFCPSLTDGSLGDMLYFHSFTKEVADNSDRNPGLIVDIVGDIRAMDGEAVHAGSRKTGVLILGGGLPKHHICNANMMRNGADFAAYINTAQEFDGSDSGARPDEAVSWGKIRCEAKTVKVHCDATIAFPLLVAETFATKARKLH
stoichiometry N (SEC-MALS [4]): 2 | stoichiometry N (SEC-MALS [5]): 4

Further lines, results first:

stoichiometry N [2]: 4
Molecule: homospermidine synthase (HSS) from Distimake quinquefolius individuum 1 (enzyme)

stoichiometry N [3]: 4
Molecule: homospermidine synthase (HSS) from Distimake quinquefolius individuum 2 (enzyme)
